Reference: patent US20230399371A1, “IL-12 COMPOSITIONS AND METHODS OF USE THEREOF” (published 2023)

Target: IL-12Rβ1/IL-12Rβ2 receptor complex (human, UniProt P42701)
Assay: cell-based or functional assay

B1: P36693671 (other)
chain 1: QVQLVQSGAEVKKPGASVKVSCKASGYTFTMNIIHWVRQAPGQGLEWMGWIHPGSGAIKYAQKLQGRVTMTTDTSTSTAYMELRSLRSDDTAVYYCARHGGTGRGAMDYWGQGTLVTVSSASTKGPSVFPLAPSSKSTSGGTAALGCLVKDYFPEPVTVSWNSGALTSGVHTFPAVLQSSGLYSLSSVVTVPSSSLGTQTYICNVNHKPSNTKVDKKVEPKSCDKGGGGSSGRSDNRGGGGSIWELKKDVYVVELDWYPDAPGEMVVLTCDTPEEDGITWTLDQSSEVLGSGKTLTIQVKEFGDAGQYTCHKGGEVLSHSLLLLHKKEDGIWSTDILKDQKEPKNKTFLRCEAKNYSGRFTCWWLTTISTDLTFSVKSSRGSSDPQGVTCGAATLSAERVRGDNKEYEYSVECQEDSAAPAAEESLPIEVMVDAVHKLKYENYTSSFFIRDIIKPDPPKNLQLKPLKNSRQVEVSWEYPDTWSTPHSYFSLTFSVQVQGQDQDEKKDRVFTDKTSATVICRKNASISVRAQDRYYSSSWSEWASVPCS
chain 2: EIVLTQSPGTLSLSPGERATLSCRASQSVSTSAYSYMHWYQQKPGQAPRLLIYLASNLESGIPDRFSGSGSGTDFTLTISRLEPEDFAVYYCQQSRELPYTFGQGTKLEIKRTVAAPSVFIFPPSDEQLKSGTASVVCLLNNFYPREAKVQWKVDNALQSGNSQESVTEQDSKDSTYSLSSTLTLSKADYEKHKVYACEVTHQGLSSPVTKSFNRGECGGGGSPLGLAGRNLPVATPDPGMFPCLHHSQNLLRAVSNMLQKARQTLEFYPCTSEEIDHEDITKDKTSTVEACLPLELTKNESSLNSRETSFITNGSCLASRKTSFMMALCLSSIYEDLKMYQVEFKTMNAKLLMDPKRQIFLDQNMLAVIDELMQALNFNSETVPQKSSLEEPDFYKTKIKLCILLHAFRIRAVTIDRVMSYLNAS
B1 was tested, and the “IFN-γ secretion by NK92MI cells (ELISA, 48 hrs)” value was ~70 fold lower.
